# According to the supplement of paper PMC7877785:
# ± gives the uncertainty stated by the source.
# Test: self-splicing fitness, log relative to wild type (ln ratio); higher = more splicing; Tetrahymena group I intron in knt gene, E. coli kanamycin selection, DiMSum; sequences stand for … in CUCUCU…GGAGGGAAAAGUUAUCAGGCAUGCACCUGGUAGCUAGUCUUUAAACCAAUAGAUUGCAUCGGUUUAAAAGGCAAGACCGUCAAAUUGCGGGAAAGGGGUCAACAGCCGUUCAGUACCAAGUCUCAGGGGAAACUUUGAGAUGGCCUUGCAAAGGGUAUGGUAAUAAGCUGACGGACAUGGUCCUAACCACGCAGCCAAGUCCUAAGUCAACAGAUCUUCUGUUGAUAUGGAUGCAGUUCACAGACUAAAUGUCGGUCGGGGAAGAUGUAUUCUUCUCAUAAGAUAUAGUCGGACCUCUCCUUAAUGGGAGCUAGCGGAUGAAGUGAUGCAACACUGGAGCCGCUGGGAACUAAUUUGUAUGCGAAAGUAUAUUGAUUAGUUUUGGAGUACUCGUGGUCG
# Outline: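 The eight P1ex-region nucleotides of an intron in the knt kanamycin-resistance gene on pET-22b(+) were all randomised and the library put into E. coli BL21(DE3). Six replicate transformations were grown overnight at 37°C or 30°C on LB agar with or without 25 μg/mL kanamycin, together with 100 μg/mL carbenicillin, 50 μM IPTG and 0.2% rhamnose. Colonies were pooled and amplicon-sequenced on an Illumina HiSeq 2500. Fitness from DiMSum is the error-weighted combination of wild-type-normalised replicate fold changes, kanamycin over none.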
Sequence,self-splicing fitness (ln) (30 °C),self-splicing fitness (ln) (37 °C)
GCGCAGCAAUAUUACGGCGG,-2.48 ± 0.13,-1.28 ± 0.15
GCGCAGCAAUAUUACGGGAU,-1.66 ± 0.1,-1.09 ± 0.12
GCGCAGCAAUAUUACGUCAG,-2.03 ± 0.14,-2.23 ± 0.18
GCGCAGCAAUAUUACGUCAU,-1.65 ± 0.084,-0.91 ± 0.086
GCGCAGCAAUAUUACGUGGA,-1.48 ± 0.098,-0.745 ± 0.098
GCGCAGCAAUAUUACGUUUA,-1.01 ± 0.1,-0.423 ± 0.1
GCGGAGCAAUAUUACGAAAC,-3.16 ± 0.31,-0.996 ± 0.24
GCGGAGCAAUAUUACGAAAU,-2.94 ± 0.5,-1.23 ± 0.42
GCGGAGCAAUAUUACGACAA,-1.13 ± 0.23,-1.7 ± 0.29
GCGGAGCAAUAUUACGAGGU,-4.1 ± 0.46,
GCGGAGCAAUAUUACGAUAC,-1.78 ± 0.18,-2.35 ± 0.33
GCGGAGCAAUAUUACGAUCU,-1.97 ± 0.25,-0.0473 ± 0.33
GCGGAGCAAUAUUACGAUGA,-3.1 ± 0.23,-2.23 ± 0.26
GCGGAGCAAUAUUACGAUGU,-2.73 ± 0.26,-1.02 ± 0.22
GCGGAGCAAUAUUACGAUUU,-2.22 ± 0.14,-0.641 ± 0.14
GCGGAGCAAUAUUACGCAUG,,-2.8 ± 0.44
GCGGAGCAAUAUUACGCCAG,-2.22 ± 0.42,-2.26 ± 0.42
GCGGAGCAAUAUUACGCCCG,-1.19 ± 0.5,
GCGGAGCAAUAUUACGCGAU,-2.58 ± 0.33,-2.18 ± 0.36
GCGGAGCAAUAUUACGCGGG,-3.35 ± 0.38,-1.2 ± 0.24
GCGGAGCAAUAUUACGGAGU,-2.51 ± 0.33,-2.1 ± 0.29
GCGGAGCAAUAUUACGGCGG,-3.3 ± 0.3,-2.6 ± 0.32
GCGGAGCAAUAUUACGGGGC,-2.48 ± 0.48,-1.65 ± 0.35
GCGGAGCAAUAUUACGGGUG,,-1.36 ± 0.34
GCGGAGCAAUAUUACGGUAC,,-2.04 ± 0.36

Sequence,self-splicing fitness (ln) (30 °C),self-splicing fitness (ln) (37 °C)
GCGGAGCAAUAUUACGGUCA,-2.75 ± 0.17,-1.04 ± 0.13
GCGGAGCAAUAUUACGGUUG,-3.64 ± 0.2,-1.78 ± 0.18
GCGGAGCAAUAUUACGUAAA,-3.53 ± 0.31,-1.97 ± 0.35
GCGGAGCAAUAUUACGUAGA,-3.84 ± 0.43,-2.24 ± 0.35
GCGGAGCAAUAUUACGUGCG,-3.79 ± 0.35,-2.55 ± 0.27
GCGUAGCAAUAUUACGAACA,-0.46 ± 0.22,-0.256 ± 0.24
GCGUAGCAAUAUUACGAAUA,-0.7 ± 0.12,-1.13 ± 0.11
GCGUAGCAAUAUUACGACAU,-0.276 ± 0.014,-0.025 ± 0.033
GCGUAGCAAUAUUACGAGGA,-1.09 ± 0.42,
GCGUAGCAAUAUUACGAUAU,-0.111 ± 0.081,-0.357 ± 0.1
GCGUAGCAAUAUUACGAUGG,-1.91 ± 0.17,-2.82 ± 0.31
GCGUAGCAAUAUUACGCAUA,-3.49 ± 0.2,-2.17 ± 0.21
GCGUAGCAAUAUUACGCGCC,-2.51 ± 0.35,-1.51 ± 0.45
GCGUAGCAAUAUUACGCGUA,-2.83 ± 0.46,-2.3 ± 0.37
GCGUAGCAAUAUUACGCUUG,,-2.26 ± 0.33
GCGUAGCAAUAUUACGGAAU,-2.67 ± 0.33,-0.8 ± 0.2
GCGUAGCAAUAUUACGGCUC,0.371 ± 0.11,0.776 ± 0.12
GCGUAGCAAUAUUACGGCUG,-3.74 ± 0.42,-1.39 ± 0.49
GCGUAGCAAUAUUACGGGAC,-2.1 ± 0.15,-2.17 ± 0.2
GCGUAGCAAUAUUACGGGCC,-3.1 ± 0.32,
GCGUAGCAAUAUUACGGGGC,-3.47 ± 0.21,-2.67 ± 0.24
GCGUAGCAAUAUUACGGGGG,-3.87 ± 0.21,-1.78 ± 0.17
GCGUAGCAAUAUUACGGGUG,-1.55 ± 0.08,-1.46 ± 0.091
GCGUAGCAAUAUUACGGUAA,-1.02 ± 0.13,-0.178 ± 0.1
GCGUAGCAAUAUUACGUAAA,-0.977 ± 0.21,-1.1 ± 0.25

Sequence,self-splicing fitness (ln) (30 °C),self-splicing fitness (ln) (37 °C)
GCGUAGCAAUAUUACGUACG,-3.93 ± 0.18,-2.88 ± 0.17
GCGUAGCAAUAUUACGUCUC,,-2.6 ± 0.39
GCGUAGCAAUAUUACGUGUG,-4.47 ± 0.42,-2.77 ± 0.2
GCGUAGCAAUAUUACGUGUU,-3.07 ± 0.21,-0.761 ± 0.12
GCGUAGCAAUAUUACGUUAG,-3.92 ± 0.22,-2.47 ± 0.23
GCGUAGCAAUAUUACGUUCG,-1.48 ± 0.33,-1.52 ± 0.32
GCUAAGCAAUAUUACGAACA,-1.65 ± 0.2,-0.907 ± 0.27
GCUAAGCAAUAUUACGAAUA,-2.16 ± 0.21,-1.73 ± 0.24
GCUAAGCAAUAUUACGACCA,-2.09 ± 0.21,-1.34 ± 0.26
GCUAAGCAAUAUUACGAGAA,-0.77 ± 0.47,-1.64 ± 0.31
GCUAAGCAAUAUUACGAGAC,-2.13 ± 0.13,-0.763 ± 0.14
GCUAAGCAAUAUUACGAUUA,-1.63 ± 0.22,-0.39 ± 0.18
GCUAAGCAAUAUUACGCACC,-0.869 ± 0.11,0.0219 ± 0.14
GCUAAGCAAUAUUACGCAGG,-2.8 ± 0.26,-3.55 ± 0.39
GCUAAGCAAUAUUACGCAGU,-3.5 ± 0.24,-2.88 ± 0.31
GCUAAGCAAUAUUACGCAUG,-2.51 ± 0.16,-2.09 ± 0.15
GCUAAGCAAUAUUACGCCAU,-2.71 ± 0.2,-3.21 ± 0.27
GCUAAGCAAUAUUACGCCCC,-1.74 ± 0.28,-0.52 ± 0.21
GCUAAGCAAUAUUACGCCGU,-3.45 ± 0.3,-0.927 ± 0.31
GCUAAGCAAUAUUACGCGAA,-2.87 ± 0.13,-1.1 ± 0.14
GCUAAGCAAUAUUACGCGAC,-2.11 ± 0.14,-1.54 ± 0.17
GCUAAGCAAUAUUACGCGUA,-1.26 ± 0.12,-0.718 ± 0.14
GCUAAGCAAUAUUACGGAAA,-1.48 ± 0.2,-2.28 ± 0.24
GCUAAGCAAUAUUACGGAAG,-1.5 ± 0.071,-0.648 ± 0.088
GCUAAGCAAUAUUACGGACA,-1.35 ± 0.12,-1.17 ± 0.12

Sequence,self-splicing fitness (ln) (30 °C),self-splicing fitness (ln) (37 °C)
GCUAAGCAAUAUUACGGCCU,-1.89 ± 0.095,-0.893 ± 0.11
GCUAAGCAAUAUUACGGUAA,-1.65 ± 0.17,-1.04 ± 0.16
GCUAAGCAAUAUUACGUAUA,-1.76 ± 0.12,-0.55 ± 0.13
GCUAAGCAAUAUUACGUCAA,-1.5 ± 0.26,-1.76 ± 0.32
GCUAAGCAAUAUUACGUCUA,-0.793 ± 0.095,-0.911 ± 0.12
GCUAAGCAAUAUUACGUGAC,-2.24 ± 0.2,-0.851 ± 0.21
GCUAAGCAAUAUUACGUGGG,-2.99 ± 0.14,-1.61 ± 0.13
GCUCAGCAAUAUUACGAACG,-0.679 ± 0.15,-0.216 ± 0.17
GCUCAGCAAUAUUACGAAUC,-0.406 ± 0.081,-0.385 ± 0.082
GCUCAGCAAUAUUACGACAC,-0.687 ± 0.098,0.564 ± 0.15
GCUCAGCAAUAUUACGACCG,-1.52 ± 0.17,-0.109 ± 0.17
GCUCAGCAAUAUUACGAGAU,-1.4 ± 0.077,-0.431 ± 0.078
GCUCAGCAAUAUUACGAGGC,-4.34 ± 0.42,-1.42 ± 0.19
GCUCAGCAAUAUUACGAUAG,-1.95 ± 0.11,-1.26 ± 0.096
GCUCAGCAAUAUUACGAUCC,-0.823 ± 0.076,-0.215 ± 0.1
GCUCAGCAAUAUUACGAUUU,-0.259 ± 0.056,0.00309 ± 0.075
GCUCAGCAAUAUUACGCAAA,-1.15 ± 0.18,-0.688 ± 0.14
GCUCAGCAAUAUUACGCCCA,-1.99 ± 0.25,-1.09 ± 0.23
GCUCAGCAAUAUUACGCGUA,-0.217 ± 0.067,-0.265 ± 0.079
GCUCAGCAAUAUUACGCGUU,-0.447 ± 0.066,0.599 ± 0.084
GCUCAGCAAUAUUACGCUGU,-1.22 ± 0.073,-0.159 ± 0.081
GCUCAGCAAUAUUACGCUUA,-1.4 ± 0.054,-0.165 ± 0.06
GCUCAGCAAUAUUACGGAAC,-0.677 ± 0.073,0.0247 ± 0.11
